Laboratory results reported in article PMC9830914, “Differential effects of mutations of POPDC proteins on heteromeric interaction and membrane trafficking” (Acta Neuropathologica Communications, 2023).
Substitutions are numbered along the chain they refer to.

Experiments:
[1] = target: POPDC1-VC155 (human) (UniProt Q8NE79); experiment: split reporter (BiFC, NanoBiT); BiFC in HEK293 cells, split Venus VC155 on POPDC1 and VN155 on POPDC2; Venus signal normalised to co-transfected mRFP and to the wild-type pair (set to 1); settings: scale: relative to the wild-type pair
[2] = target: POPDC1 p.Q153X-VC155 (human) (UniProt Q8NE79); experiment: as above; settings: scale: relative to the wild-type pair
[3] = target: T1, POPDC1 p.S201F-VC155 (human, UniProt Q8NE79 1-360, p.S201F); experiment: as above; settings: partners not purified
T1 construct: POPDC1 (BVES), human, full-length cDNA with the patient variant p.S201F; source: HEK293, transfected, in cells; not shown: split Venus VC155, C-terminal, kept
T1 sequence (looked up): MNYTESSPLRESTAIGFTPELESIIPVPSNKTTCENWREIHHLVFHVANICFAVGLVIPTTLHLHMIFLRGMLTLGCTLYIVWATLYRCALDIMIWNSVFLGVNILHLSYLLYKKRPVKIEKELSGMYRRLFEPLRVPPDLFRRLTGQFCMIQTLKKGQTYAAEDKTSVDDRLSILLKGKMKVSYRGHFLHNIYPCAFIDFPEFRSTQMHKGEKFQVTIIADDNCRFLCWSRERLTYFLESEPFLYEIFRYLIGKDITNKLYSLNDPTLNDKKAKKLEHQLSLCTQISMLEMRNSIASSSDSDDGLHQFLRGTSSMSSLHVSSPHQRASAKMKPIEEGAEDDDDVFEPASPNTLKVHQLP

[4] = target: the molecule itself; experiment: SDS-PAGE and Western blot of oligomer bands; COS-7 cells lysed in 4 M urea and 10% SDS without a reducing agent; anti-GFP antibody detects complexes that hold POPDC1-CFP
[5] = target: the molecule itself; experiment: FRET or BRET; type-1 quantitative NanoBRET in HEK293 cells; C-terminal NanoLuc and HaloTag (HaloTag-618 dye); expression ratios varied at constant total expression; curves compared to ideal curves for monomers, dimers and other stoichiometries

POPDC2 p.W188X-VN155 (from UniProt Q9HBU9 1-187) (domain or fragment)
BiFC signal relative to the wild-type pair [1]: 0.59

B1: POPDC2-VN155 (natural protein, human, UniProt Q9HBU9 1-364, looked up)
chain: MSANSSRVGQLLLQGSACIRWKQDVEGAVYHLANCLLLLGFMGGSGVYGCFYLFGFLSAGYLCCVLWGWFSACGLDIVLWSFLLAVVCLLQLAHLVYRLREDTLPEEFDLLYKTLCLPLQVPLQTYKEIVHCCEEQVLTLATEQTYAVEGETPINRLSLLLSGRVRVSQDGQFLHYIFPYQFMDSPEWESLQPSEEGVFQVTLTAETSCSYISWPRKSLHLLLTKERYISCLFSALLGYDISEKLYTLNDKLFAKFGLRFDIRLPSLYHVLGPTAADAGPESEKGDEEVCEPAVSPPQATPTSLQQTPPCSTPPATTNFPAPPTRARLSRPDSGILASRIPLQSYSQVISRGQAPLAPTHTPEL
notes: POPDC2, human, full-length wild-type cDNA; also called wild-type POPDC2 with split Venus VN155; source: HEK293, transfected, in cells; not shown: split Venus VN155, C-terminal, kept
BiFC signal relative to the wild-type pair [2]: 0.248 | BiFC signal relative to the wild-type pair [3]: 0.43 relative to the wild-type pair (set to 1)

B2: POPDC1-CFP (natural protein, human, UniProt Q8NE79 1-360, looked up)
chain: T1 sequence (looked up) with F201S
notes: POPDC1 (BVES), human, full length cDNA in pECFP-N1; printed molecular weight of POPDC1 41.5 kDa; also called POPDC1-ECFP; source: COS-7, transfected, in lysate (4 M urea, 10% SDS, no reducing agent); not shown: CFP, C-terminal, kept
stoichiometry N [4]: 2

B3: POPDC1 with C-terminal NanoLuc or HaloTag (NanoBRET constructs) (natural protein, human, UniProt Q8NE79 1-360, looked up)
chain: T1 sequence (looked up) with F201S
modifications: HaloTag-618 dye on the HaloTag copy
notes: POPDC1 (BVES), human cDNA cloned into pFC14K (HaloTag) or pFC32K (NanoLuc); Two differently tagged copies of one protein, written as one molecule: each copy carries only one of the two tags; With POPDC2-NL the HaloTag copy was used; also called POPDC1-NL; POPDC1-HT; source: HEK293, transiently transfected, in live cells; not shown: NanoLuc (on the copy POPDC1-NL), C-terminal, kept; HaloTag (on …)
stoichiometry N [5]: 2
